T1: VEGF 121 Protein, Human, Recombinant (Sino Biological) (human, UniProt P15692-9 27-147)
T1 sequence (looked up): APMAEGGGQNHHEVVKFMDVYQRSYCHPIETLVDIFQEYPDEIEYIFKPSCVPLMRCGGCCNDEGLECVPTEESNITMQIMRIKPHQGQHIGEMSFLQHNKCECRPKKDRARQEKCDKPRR

B1: SG1202 (printed 'a PD-L2 antibody 1'; used as PD-L1 antibody, apparently PD-L1 antibody 2) (antibody, V domains shown)
VH: EVQLVESGGGLVQPGGSLRLSCAASGFTFSRYWMSWVRQAPGKGLEWVANIKQDGSEKYYVDSVKGRFTISRDNAKNSLYLQMNSLRAEDTAVYYCAREGGWFGELAFDYWGQGTLVTVSS
VL: EIVLTQSPGTLSLSPGERATLSCRASQRVSSSYLAWYQQKPGQAPRLLIYDASSRATGIPDRFSGSGSGTDFTLTISRLEPEDFAVYYCQQYGSLPWTFGQGTKVEIK
notes: Only variable regions are tied to SG1202; also called PD-L1 antibody SG1202; antibody SG1202
B2: bispecific fusion protein 12VF2 (bispecific antibody, human IgG1, kappa)
light: EIVLTQSPGTLSLSPGERATLSCRASQRVSSSYLAWYQQKPGQAPRLLIYDASSRATGIPDRFSGSGSGTDFTLTISRLEPEDFAVYYCQQYGSLPWTFGQGTKVEIKRTVAAPSVFIFPPSDEQLKSGTASVVCLLNNFYPREAKVQWKVDNALQSGNSQESVTEQDSKDSTYSLSSTLTLSKADYEKHKVYACEVTHQGLSSPVTKSFNRGEC
heavy: EVQLVESGGGLVQPGGSLRLSCAASGFTFSRYWMSWVRQAPGKGLEWVANIKQDGSEKYYVDSVKGRFTISRDNAKNSLYLQMNSLRAEDTAVYYCAREGGWFGELAFDYWGQGTLVTVSSASTKGPSVFPLAPSSKSTSGGTAALGCLVKDYFPEPVTVSWNSGALTSGVHTFPAVLQSSGLYSLSSVVTVPSSSLGTQTYICNVNHKPSNTKVDKRVEPKSCDKTHTCPPCPAPEFEGGPSVFLFPPKPKDTLMISRTPEVTCVVVDVSHEDPEVKFNWYVDGVEVHNAKTKPREEQYNSTYRVVSVLTVLHQDWLNGKEYKCKVSNKALPASIEKTISKAKGQPREPQVYTLPPSREEMTKNQVSLTCLVKGFYPSDIAVEWESNGQPENNYKTTPPVLDSDGSFFLYSKLTVDKSRWQQGNVFSCSVMHEALHNHYTQKSLSLSPGKGGGGSGGGGSSDTGRPFVEMYSEIPEIIHMTEGRELVIPCRVTSPNITVTLKKFPLDTLIPDGKRIIWDSRKGFIISNATYKEIGLLTCEATVNGHLYKTNYLTHRQTNTIIDVVLSPSHGIELSVGEKLVLNCTARTELNVGIDFNWEYPSSKHQHKKLVNRDLKTQSGSEMKKFLSTLTIDGVTRSDQGLYTCAASSGLMTKKNSTFVRVHE

Experiments:
[1] = biological target: T2, Biotinylated Human VEGF165 Protein, His, Avitag (Acro Biosystems) (human, UniProt P15692-4 27-191, biotin-labeled (site not stated; Avitag)); assay: bridging ELISA: PD-L1 coated, sample, then biotin-labeled VEGF165
T2 construct: also called biotin-labeled VEGF165; not shown: His tag and Avitag

[2] = biological target: T2, Biotinylated Human VEGF165 Protein, …; assay: competition ELISA, VEGFR1 coated (competitor), biotin-labeled VEGF165 detected
Method: (§1) 100 μL of 2N H₂SO4 stop solution was added to each well to terminate the substrate reaction.

[3] = biological target: T1, VEGF 121 Protein, Human, Recombinant …; assay: competition ELISA, VEGF121 coated, competitor biotin-labeled VEGFR2
[4] = biological target: VEGF165 Protein, Human, Cynomolgus, Recombinant, HPLC-verified (Sino Biological) (Human, Cynomolgus, UniProt P15692-4 27-191); assay: competition ELISA, VEGF165 coated, competitor biotin-labeled VEGFR2
Method: as §1

Binder | binding result [1] | IC50 [2] [nM] | IC50 [3] [nM] | IC50 [4] [nM]
B1 | no binding |  |  | 
B2 |  | 5.05 | 3.29 | 3.5
